Measurements published in patent US20260132208A1 (DOMAIN THERAPEUTICS, published 2026).

Tests used:
[1] = biological target: T1, pm2 (sulfated tyrosine(s) among Y15, Y16, Y17; which ones is not told (the underlining of Table 1 is lost in the text)); test: ELISA on coated peptide [cont.]
T1 construct: also called sulfated CCR8 N-terminal peptide pm2
In short: (§1)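 Each antibody is tested at 1 μg/mL plus a 1/10 dilution against peptide coated at 500 ng/ml in carbonate/bicarbonate buffer. Binding runs 90 min at room temperature. After washing, TMB substrate is added for 15 min and OD gives the signal.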

[2] = biological target: T2, pwt1 (none (unmodified peptide)); test: ELISA on coated peptide [cont.]
T2 construct: also called unmodified CCR8 N-terminal peptide
In short: as §1

T1 sequence (peptide, as listed by the source): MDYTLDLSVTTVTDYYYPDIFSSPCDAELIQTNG
T2 sequence (peptide, as listed by the source): as above

binding result [1]: binds | binding result [2]: binds
B1: anti-CCR8 mAb 1-20 (antibody, human IgG1, kappa)
heavy: not shown
light: DIVMTQAAPSLSVTPGESASISCTSSKSLLHSNGNTYLYWFLQKPGQSPQLLIYRMSNLASGVPDRFSGSGSGTAFTLKISRVEAEDVGVYYCMQHREYPFTFGSGTKLEIKRTVAAPSVFIFPPSDEQLKSGTASVVCLLNNFYPREAKVQWKVDNALQSGNSQESVTEQDSKDSTYSLSSTLTLSKADYEKHKVYACEVTHQGLSSPVTKSFNRGEC
notes: Humanized mAb, human IgG1 / kappa
